Assay results reported in patent US20180371086A1.

Assays:
Assay in all cases: cell-based or functional assay
[1] = target: HIV-1 Env gp120 of virus 92US727, on infected cells (HIV-1)
[2] = target: HIV-1 Env gp120 of virus WITO, on infected cells (HIV-1)
[3] = target: HIV-1 Env of clone CH058 (HIV-1)
[4] = target: HIV-1 Env of clone CH077 (HIV-1)
[5] = target: HIV-1 Env of clone CH106 (HIV-1)
[6] = target: HIV-1 Env of clone REJO (HIV-1)
[7] = target: HIV-1 Env of clone RHPA (HIV-1)
[8] = target: HIV-1 Env of clone THRO (HIV-1)
[9] = target: HIV-1 Env of clone WITO (HIV-1)
[10] = target: HIV-1 Env of isolate 8106 (HIV-1)
[11] = target: HIV-1 Env of isolate 8134 (HIV-1)
[12] = target: HIV-1 Env of isolate 8318 (HIV-1)
[13] = target: HIV-1 Env of isolate 8398 (HIV-1)
[14] = target: HIV-1 Env of isolate 92HT593 (HIV-1)
[15] = target: HIV-1 Env of isolate 92US657 (HIV-1)
[16] = target: HIV-1 Env of isolate 92US727 (HIV-1)
[17] = target: HIV-1 Env of strain BaL (HIV-1)

## PGT-121.60 (antibody)
[1]
  Maximum percent of HIV-infected cells killed; PBMC-derived effector cells; donor 1004344; virus 92US727: 63.7%
  Maximum percent of HIV-infected cells killed; tonsil-derived effector cells; donor 1004344; virus 92US727: 0%
  Potency (IC50) of killing HIV-infected cells; PBMC-derived effector cells; donor 1004344; virus 92US727: 0.014 µg/mL
  Potency (IC50) of killing HIV-infected cells; tonsil-derived effector cells; donor 1004344; virus 92US727: > 10 µg/mL
[2]
  killing EC50; HIV-infected CD4 T cells (WITO); effector cells Eff Memory CD4: > 10 µg/mL
  killing EC50; HIV-infected CD4 T cells (WITO); effector cells Memory CD4: > 10 µg/mL
  killing EC50; HIV-infected CD4 T cells (WITO); effector cells Memory CD8: > 10 µg/mL
  killing EC50; HIV-infected CD4 T cells (WITO); effector cells γ Δ CD4: 0.36 µg/mL
  killing EC50; HIV-infected CEM-NKr-CCR5-LucR CD4 T cells; PBMC donor 4176; virus WITO: > 100 µg/mL
  killing EC50; HIV-infected CEM-NKr-CCR5-LucR CD4 T cells; PBMC donor 4288; virus WITO: 0.767 µg/mL
  killing Emax; HIV-infected CD4 T cells (WITO); effector cells Eff Memory CD4: 0%
  killing Emax; HIV-infected CD4 T cells (WITO); effector cells Memory CD4: 9%
  killing Emax; HIV-infected CD4 T cells (WITO); effector cells Memory CD8: 9%
  killing Emax; HIV-infected CD4 T cells (WITO); effector cells γ Δ CD4: 18%
  killing Emax; HIV-infected CEM-NKr-CCR5-LucR CD4 T cells; PBMC donor 4176; virus WITO: 0%
  killing Emax; HIV-infected CEM-NKr-CCR5-LucR CD4 T cells; PBMC donor 4288; virus WITO: 46%
[3]
  IC50 (neutralization, CEM.NKr.CCR5.LucR based assay): 0.063 µg/mL
[4]
  IC50 (neutralization, CEM.NKr.CCR5.LucR based assay): > 100 µg/mL
[5]
  IC50 (neutralization, CEM.NKr.CCR5.LucR based assay): > 100 µg/mL
[6]
  IC50 (neutralization, CEM.NKr.CCR5.LucR based assay): > 100 µg/mL
[7]
  IC50 (neutralization, CEM.NKr.CCR5.LucR based assay): 0.534 µg/mL
[8]
  IC50 (neutralization, CEM.NKr.CCR5.LucR based assay): > 100 µg/mL
[9]
  IC50 (neutralization, CEM.NKr.CCR5.LucR based assay): 1.05 µg/mL
[10]
  IC50 (neutralization, CEM.NKr.CCR5.LucR based assay): 0.091 µg/mL
[11]
  IC50 (neutralization, CEM.NKr.CCR5.LucR based assay): 0.062 µg/mL
[12]
  IC50 (neutralization, CEM.NKr.CCR5.LucR based assay): 0.048 µg/mL
[13]
  IC50 (neutralization, CEM.NKr.CCR5.LucR based assay): 0.028 µg/mL
[14]
  IC50 (neutralization, CEM.NKr.CCR5.LucR based assay): 0.024 µg/mL
[15]
  IC50 (neutralization, CEM.NKr.CCR5.LucR based assay): 0.168 µg/mL
[16]
  IC50 (neutralization, CEM.NKr.CCR5.LucR based assay): 0.013 µg/mL
[17]
  IC50 (neutralization, CEM.NKr.CCR5.LucR based assay): 0.015 µg/mL
